Measured values from article doi:10.1101/2022.05.06.490478 (bioRxiv, 2022).

B1: C. elegans TMC-1 with C-terminal 3C site-mVenus-3xFLAG (tmc-1::mVenus knock-in) (natural protein, UniProt D3KZG3 1-1285, looked up)
chain: MQEAARRASLRKEHTPTNEKFGDLSKQDSLGERASSKLTLDDELYDILYAFGETDAFINKGDKQRETDEDGNPLTRQALLERIRQKKEVIGKLRCQAWSMTRKRRTLKLAQKYLEQHESKVSRSHLYMEEMRKRARLMKRSFSNFKTYLIPWESKIKRIESHFGSVVSSYFTFLRWIVFVNIMITLIALVFVVLPETLADSVANEGRFNRTKTRKQIPANERVHADELAVVWHYDGYLRYSPLFYGYYSDDPFLGNKIKYALPLAYFMVTLTIFAYSFFAILRKMAANARMSKLSGSKAEQYIFNWKLFTGWDYTIGNSETASNTVMAVVIKLRESIADIKKDAHGKFRLLQFSLRVFANIIICAMLGFSIYCIIFAVQKSQVQDDGNLFTKNQVPSVVSTITHVFPMIFDLIGKMENYHPRTALRAHLGRVLILYTVNYITLIFALFEKMTALRDRVNSTSTSSSHRTKRQQGGWNPNMQRPPPYASRAEVRQMSDFLAANTRRFQTVSQRTTRSVTTPFTVAPQFGPFNVNNPNAVFHNGTHSTSFESQILGPKALPIFTPPPRKYPGFTPGNVGQQFGGPDFPRNQVYTKSTPLPRVRTKPPWVYTTTHPPLVQNRAMTTTMSKSAKKGNSKNLDDDILLSNETIQMSEAALRRNHDGHNNDICWETIIGQEIVKLVTMDLIFTILSILVIDLFRGLWIKYCSSWWCWDIETTFPEYGEFKVAENVLHIINNQGMIWLGLFFAPLLPAINNIKLIILMYIRGWAVMTCNVPAREIFRASRSSNFYLGILLIWLLLCTLPVGFVIASMSPSRSCGPFARYQHFYTVVTREIEKRVDQTVLSYIRHIASPGVVIPIILFLILIIYFLFSLVRGLREANTDLQAQLVHERTEEKKKIFELAGGKKNKFEKDRDKKRSNDYIPLIEQRRREPWRQYHEMEADHALASDSSEESDINEDEDDERQPLTAYPLRAIETPPETLQVTAFHPSLGSLIENREMEDEESASGDQLPMIHKSVSFQGPSHMQMRQSISTESCSQISRSAIQVATPEEIRALLRPYLEAKYGIPYQHGIKSFPIDVHTPPNNTPSRRSSKYNSFVSLYEHTRDDHKNFVASTIKETDEDPGKSDKKQTSSKDVAPDFMPWPSADEARALREKMKSKTPLMLTKTTVEEKPKGGKSSESEFRPPVPIHRKYNIQTTEEENEEEETDSAPESSKKRFRISVSPTKTIAPASASRAQHKIVSQASSSSSIPHGRQPDPNKKASLVLPPLRAPRVQFDEDDSPRQID
B2: C. elegans TMC-1 (pore-forming subunit of the native TMC-1 complex), after removal of mVenus-3xFLAG by 3C protease (natural protein, UniProt D3KZG3 1-1285, looked up)
chain: MQEAARRASLRKEHTPTNEKFGDLSKQDSLGERASSKLTLDDELYDILYAFGETDAFINKGDKQRETDEDGNPLTRQALLERIRQKKEVIGKLRCQAWSMTRKRRTLKLAQKYLEQHESKVSRSHLYMEEMRKRARLMKRSFSNFKTYLIPWESKIKRIESHFGSVVSSYFTFLRWIVFVNIMITLIALVFVVLPETLADSVANEGRFNRTKTRKQIPANERVHADELAVVWHYDGYLRYSPLFYGYYSDDPFLGNKIKYALPLAYFMVTLTIFAYSFFAILRKMAANARMSKLSGSKAEQYIFNWKLFTGWDYTIGNSETASNTVMAVVIKLRESIADIKKDAHGKFRLLQFSLRVFANIIICAMLGFSIYCIIFAVQKSQVQDDGNLFTKNQVPSVVSTITHVFPMIFDLIGKMENYHPRTALRAHLGRVLILYTVNYITLIFALFEKMTALRDRVNSTSTSSSHRTKRQQGGWNPNMQRPPPYASRAEVRQMSDFLAANTRRFQTVSQRTTRSVTTPFTVAPQFGPFNVNNPNAVFHNGTHSTSFESQILGPKALPIFTPPPRKYPGFTPGNVGQQFGGPDFPRNQVYTKSTPLPRVRTKPPWVYTTTHPPLVQNRAMTTTMSKSAKKGNSKNLDDDILLSNETIQMSEAALRRNHDGHNNDICWETIIGQEIVKLVTMDLIFTILSILVIDLFRGLWIKYCSSWWCWDIETTFPEYGEFKVAENVLHIINNQGMIWLGLFFAPLLPAINNIKLIILMYIRGWAVMTCNVPAREIFRASRSSNFYLGILLIWLLLCTLPVGFVIASMSPSRSCGPFARYQHFYTVVTREIEKRVDQTVLSYIRHIASPGVVIPIILFLILIIYFLFSLVRGLREANTDLQAQLVHERTEEKKKIFELAGGKKNKFEKDRDKKRSNDYIPLIEQRRREPWRQYHEMEADHALASDSSEESDINEDEDDERQPLTAYPLRAIETPPETLQVTAFHPSLGSLIENREMEDEESASGDQLPMIHKSVSFQGPSHMQMRQSISTESCSQISRSAIQVATPEEIRALLRPYLEAKYGIPYQHGIKSFPIDVHTPPNNTPSRRSSKYNSFVSLYEHTRDDHKNFVASTIKETDEDPGKSDKKQTSSKDVAPDFMPWPSADEARALREKMKSKTPLMLTKTTVEEKPKGGKSSESEFRPPVPIHRKYNIQTTEEENEEEETDSAPESSKKRFRISVSPTKTIAPASASRAQHKIVSQASSSSSIPHGRQPDPNKKASLVLPPLRAPRVQFDEDDSPRQID
modifications: N-linked glycan at N209

How the values were obtained:
[1] = target: the molecule itself; assay: single molecule pulldown
[2] = target: the molecule itself; assay: cryo-EM structure

Protein	stoichiometry N [1]	stoichiometry N [2]
B1	2	–
B2	–	2
